Experimental data reported in patent US20250145690A1 (US Dept. of Health and Human Services, published 2025).

Tests used:
[1] = biological target: T1, SARS-CoV-2 spike S2 subunit, recombinant (SARS-CoV-2, UniProt P0DTC2 686-1213); experiment: bead flow cytometry, AUC minus CD4
T1 construct: domain: S2 subunit

HCoV-OC43 spike protein = biological target: T2, HCoV-OC43 spike protein (HCoV-OC43, UniProt P36334 14-1297); experiment: bead flow cytometry, AUC minus CD4
T2 sequence: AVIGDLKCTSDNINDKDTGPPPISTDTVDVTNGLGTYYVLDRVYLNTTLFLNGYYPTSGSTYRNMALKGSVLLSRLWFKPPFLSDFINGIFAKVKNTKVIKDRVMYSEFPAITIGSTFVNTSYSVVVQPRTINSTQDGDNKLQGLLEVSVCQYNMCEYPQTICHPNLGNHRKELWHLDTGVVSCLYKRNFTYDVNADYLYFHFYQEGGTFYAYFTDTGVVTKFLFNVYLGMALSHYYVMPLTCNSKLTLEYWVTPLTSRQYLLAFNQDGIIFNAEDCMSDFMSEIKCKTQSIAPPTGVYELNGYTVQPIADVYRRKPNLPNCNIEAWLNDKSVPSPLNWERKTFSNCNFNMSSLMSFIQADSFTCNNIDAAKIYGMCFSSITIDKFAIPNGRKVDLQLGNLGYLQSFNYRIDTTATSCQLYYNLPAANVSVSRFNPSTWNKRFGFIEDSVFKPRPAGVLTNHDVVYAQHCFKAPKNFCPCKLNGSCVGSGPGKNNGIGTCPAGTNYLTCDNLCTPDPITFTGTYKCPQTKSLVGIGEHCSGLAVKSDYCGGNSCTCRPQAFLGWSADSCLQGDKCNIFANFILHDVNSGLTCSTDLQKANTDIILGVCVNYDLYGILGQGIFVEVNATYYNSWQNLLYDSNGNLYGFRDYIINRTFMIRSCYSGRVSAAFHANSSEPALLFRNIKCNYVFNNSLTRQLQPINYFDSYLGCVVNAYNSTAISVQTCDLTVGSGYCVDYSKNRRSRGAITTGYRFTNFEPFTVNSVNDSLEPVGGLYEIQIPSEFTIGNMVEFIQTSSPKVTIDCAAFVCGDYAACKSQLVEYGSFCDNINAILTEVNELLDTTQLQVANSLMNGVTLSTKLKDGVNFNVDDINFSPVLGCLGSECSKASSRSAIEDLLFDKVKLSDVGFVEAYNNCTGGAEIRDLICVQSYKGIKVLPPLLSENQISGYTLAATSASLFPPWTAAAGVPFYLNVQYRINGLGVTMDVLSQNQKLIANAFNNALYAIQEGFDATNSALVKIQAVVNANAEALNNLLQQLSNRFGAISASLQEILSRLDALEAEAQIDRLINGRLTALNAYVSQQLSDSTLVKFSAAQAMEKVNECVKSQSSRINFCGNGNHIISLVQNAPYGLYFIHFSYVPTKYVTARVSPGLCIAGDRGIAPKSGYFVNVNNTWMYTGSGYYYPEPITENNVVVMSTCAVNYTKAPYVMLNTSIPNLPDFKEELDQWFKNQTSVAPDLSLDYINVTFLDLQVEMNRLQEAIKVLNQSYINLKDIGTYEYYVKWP

| Binder | binding result [1] | binding result (HCoV-OC43 spike protein) |
| --- | --- | --- |
| COV49-54 (antibody, V domains shown) VH: EVQLVESGGGLVQPGGSLRLSCAASGFIVSSNYMSWVRQAPGKGLEWVSMIYSGGSTVYADSVKGRFTISRDISKNTLYLQMNSLRAEDTAVYYCALETFDYWGQGTLVTVSS VL: DIQMTQSPSSLSASVGDRVTITCRASQGITNHLAWYQQKPGKVPKLLIYAASTLQSGVPSRFSGSGYGTDFTLTISSLQPEDVASYYCQKYDSAPRTFGQGTKVEIK | no binding (tested: 200 µg/mL) |  |
| COV23-01 (antibody, V domains shown) VH: QVTLKESGPVLVKPTETLTLTCTVSGFSLSNTKMGVSWIRQPPGKALEWLAHIFSNDRKSYTTSLKSRLTISEDTSKSQIVLTMTNMDPVDTATYYCARIGAGGTYNFYYYMDVWGKGTTVTVSS VL: EIVLTQSPATLSLSPGERATLSCRASQSVSSYLAWYQQKPGQAPRLLIYDASNRATGIPARFSGSGSGTDFTLTISSLEPEDFAVYYCQQRSLYYTFGQGTKLEIK |  | no binding (tested: 200 µg/mL) |
